Reference: article PMC13078783 (2026)

Assays:
KLC1 TPR domain = experiment: FP
KLC2 TPR domain = experiment: FP
Sequence of KLC2 TPR domain (chain, as listed by the source): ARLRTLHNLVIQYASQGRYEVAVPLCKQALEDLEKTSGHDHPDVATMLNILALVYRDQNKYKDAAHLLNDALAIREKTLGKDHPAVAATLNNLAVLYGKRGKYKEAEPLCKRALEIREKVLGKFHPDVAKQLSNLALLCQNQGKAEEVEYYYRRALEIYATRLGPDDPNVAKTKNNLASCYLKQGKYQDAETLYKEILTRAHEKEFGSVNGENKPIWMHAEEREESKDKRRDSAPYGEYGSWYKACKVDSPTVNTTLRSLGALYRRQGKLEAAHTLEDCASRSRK

Sequence of KLC1 TPR domain (chain, as listed by the source): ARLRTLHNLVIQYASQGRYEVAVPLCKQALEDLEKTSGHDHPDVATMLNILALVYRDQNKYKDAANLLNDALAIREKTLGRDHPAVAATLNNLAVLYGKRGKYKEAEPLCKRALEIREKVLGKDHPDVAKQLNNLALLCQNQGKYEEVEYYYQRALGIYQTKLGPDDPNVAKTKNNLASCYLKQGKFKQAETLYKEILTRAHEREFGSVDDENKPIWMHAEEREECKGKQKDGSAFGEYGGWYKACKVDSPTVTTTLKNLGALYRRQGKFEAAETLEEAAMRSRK

{TAMRA}-STNLEWDDSAI-NH2 [SKIP W-acidic motif peptide]
Kd (KLC1 TPR domain): 830 nM
Kd (KLC2 TPR domain): 750 nM
